Key:
Type in all cases: physicochemical
[1] = Stability and reconstitution of nanocluster solutions (urea/urease method); conditions: in the original volume of water; clear solution, nanocluster size unchanged
Description: Nanoclusters were prepared by the urea/urease method, as discussed above and as known in the art (Holt, C., Wahlgren, N. M. & Drakenberg, T. (1996). Ability of a beta-casein phosphopeptide to modulate the precipitation of calcium phosphate by forming amorphous dicalcium phosphate nanoclusters. Biochemical Journal 314, 1035-1039) but wherein the phosphopeptide was provided by either the OPNmix, discussed above, or fractions from the gel filtration separation. Typically, an OPNmix sample (25 mg) was dissolved in 1 ml of water and dialysed overnight against 500 ml of 1 mM EDTA followed by exhaustive dialysis against deionised water to remove Ca ions. The Ca-free peptides were recovered by freeze drying.
An initial under-saturated solution of salts at pH 5 with the composition 22 mM Ca(NO3)2, 20 mM KH2PO4, 36 mM KNO3 and 1.5 mM NaN3 (Mg-free Buffer A) was used to dissolve the peptide. Sufficient urea (0-30 mM) was added from a stock solution of 200 mM to give the desired final pH after hydrolysis with 2 units of urease from Canavalia ensiformis (Calbiochem product no. 666133). These conditions allowed the pH to rise to within 0.004 units of the target value within a few minutes. […]

[2] = Partition of salts by ultrafiltration and ion equilibria model of nanocluster solutions; conditions: nanocluster solution at pH 7.0
Description: Nanocluster solutions of the Ca-free OPNmix in the Mg-free Buffer A were prepared by the urea/urease method with a pH between 5.0 and 7.5. They were allowed to equilibrate before ultrafiltration through Vivaspin 0.5 ml concentrators (Product VS0101 with a molecular weight cut off of 10,000 Da, Vivascience AG, Germany) using a centripetal field of 5000×g for 15 min. […] The ion activity product in the ultrafiltrates were calculated at each pH for a range of y values in order to find the value that was independent of pH.
In addition to the work with the OPNmix sample, a single determination was made of the partition of salts in a nanocluster solution at pH 7.0 prepared with the pure OPN 1-149 peptide.

[3] = SAXS of free OPN and OPN 1-149 (Guinier, worm-like chain model); conditions: free peptide, 5-15 mg ml^−1, average of three determinations
Description: In a SAXS experiment, wherein measurements were made on station 2.1 at the CCLRC Daresbury Laboratory, the normalised scattered intensity I(q) was measured. For a dispersion of isotropic, monodisperse particles, I(q) is related to the inter-particle structure factor, S(q) and the particle scattering factor P(q) by
where N is the number of particles of mean excess scattering length density over the solvent Δ ρp, volume Vp and mass M. The scattering wave vector is q=4π sin θ/λo, where θ is half the scattering angle and λo is the wavelength of the X-rays. In a dilute solution where S(q)=1 and a fraction α′ of the peptide chains have formed a polydisperse distribution of nanoclusters, equation (22) becomes
The molar volumes of the unphosphorylated residues were taken from Jacrot and Zaccai (Jacrot, B. & Zaccai, G. (1981). Determination of Molecular-Weight by Neutron-Scattering. Biopolymers 20, 2413-2426). The molar volume of ortho-L-phosphoserine was calculated from the unit cell volume of the amino acid, as determined by Sundaralingam (Sundaralingam, M. & Putkey, E. F. (1970). Molecular structures of amino acids and peptides. II. A redetermination of the crystal structure of L-O-serine phosphate. A very short phosphate-carboxyl hydrogen bond. Acta Crystallographica B26, 790-800) and 11 Å^3 subtracted to give the residue volume of 168.7 Å^3. The difference in residue volumes of serine and phosphoserine was then used to calculate a residue volume for phosphothreonine of 191.7 Å^3. The X-ray forward scattering amplitudes of the residues were calculated from the elemental compositions using atomic scattering factors. For OPN 16P 1-149 and OPN 28P 1-262, the scattering length densities in units of […] were calculated to be 12.56 and 12.48, respectively. For the nanoclusters prepared with OPN 16P 1-149 it was assumed that the phosphate moieties of the 10 phosphorylated residues found in the three PCs, were assigned to the core, giving ρshell=12.40×10^10 cm^−2. For the core, a hydrated CaP with the composition given by equation (2) gave ρcore=19.1×10^10 cm^−2. Radii of gyration of the whole protein and N-terminal polypeptide were independent of concentration in the range 5-15 mg ml^−1. For OPN the average of three determinations by the Guinier method was 5.50±0.17 nm and the corresponding value for OPN 1-149 was 2.17±0.24 nm. For OPN with 262 residues, equation (28) predicts a radius of gyration of 5.38 nm and for the N-terminal plasmin peptide of 149 residues, the predicted value is 3.84 nm.
Random-coil behavior and the dimensions of chemically unfolded proteins. Proceedings of the National Academy of Sciences of the United States of America 101, 12491-12496). […]

OPN 1-149: N-terminal osteopontin phosphopeptide fragment from bovine milk, probably formed by plasmin; gel filtration fraction F3a
dissolution of freeze-dried nanocluster powder [1]: dissolve virtually instantly | ultrafiltrate concentration of Ca, experimental [2]: 1.4 mM | ultrafiltrate concentration of Ca^2+, experimental [2]: 1.1 mM | ultrafiltrate concentration of Pi, experimental [2]: 12.1 mM | radius of gyration by the Guinier method [3]: 2.17±0.24 nm
